Test results taken from the Immune Epitope Database (IEDB).
Each block holds one sequence with its values, some of them ahead of it.

Experiments:
Assay in all cases: IEDB peptide-MHC binding, purified MHC/competitive/radioactivity; filed as Kd, often an IC50 or EC50 that approximates it; ≥ and ≤ were set here for values at or beyond the usual limits of such assays
HLA-B*40:02 = target: HLA-B*40:02
HLA-B*44:03 = target: HLA-B*44:03
HLA-B*18:01 = target: HLA-B*18:01
HLA-B*45:01 = target: HLA-B*45:01
HLA-B*40:01 = target: HLA-B*40:01
HLA-B*44:02 = target: HLA-B*44:02
HLA-A*02:01 = target: HLA-A*02:01
HLA-A*26:01 = target: HLA-A*26:01
HLA-A*29:02 = target: HLA-A*29:02
HLA-A*30:02 = target: HLA-A*30:02
HLA-A*24:02 = conditions: source organism: SARS coronavirus Tor2
HLA-A*01:01 = target: HLA-A*01:01
HLA-A*23:01 = conditions: source organism: SARS coronavirus Tor2
HLA-A*30:01 = conditions: source organism: Mammarenavirus guanaritoense
HLA-A*32:01 = conditions: source organism: Mammarenavirus guanaritoense
[1] = source organism: Lymphocytic choriomeningitis virus (strain Armstrong)
[2] = source organism: SARS coronavirus Tor2
[3] = source organism: Mammarenavirus guanaritoense

Sequence: LDVLCLSSL
Kd (HLA-B*40:02; [1]): 43.4 nM
Kd (HLA-B*44:03; [1]): 7540 nM
Kd (HLA-B*18:01; [1]): ≥ 22900 nM
Kd (HLA-B*45:01; [1]): 8170 nM
Kd (HLA-B*40:01; [1]): 6120 nM
Kd (HLA-B*44:02; [1]): 7760 nM

Sequence: LTDLGLIYTA
Kd (HLA-A*02:01; source organism: Lassa virus GA391): 893 nM

Kd (HLA-A*02:01; source organism: Homo sapiens): 2630 nM
Sequence: LTVILGVLL

Sequence: LVVDFSQFSR
Kd (HLA-A*02:01; source organism: Hepatitis B virus subtype adw2): ≥ 35000 nM

Sequence: MEAQFLYLY
Kd (HLA-B*40:02; [2]): 2220 nM
Kd (HLA-B*44:03; [2]): 0.933 nM
Kd (HLA-B*18:01; [2]): 0.292 nM
Kd (HLA-A*26:01; [2]): 1930 nM
Kd (HLA-A*29:02; [2]): 5.98 nM
Kd (HLA-A*30:02; [2]): 11.7 nM
Kd (HLA-A*24:02): 9600 nM
Kd (HLA-A*01:01; [2]): 1570 nM
Kd (HLA-A*23:01): 16800 nM
Kd (HLA-B*45:01; [2]): 12.2 nM
Kd (HLA-B*40:01; [2]): 1850 nM
Kd (HLA-B*44:02; [2]): 2.15 nM

Sequence: METDFLELAM
Kd (HLA-B*40:02; [2]): 289 nM
Kd (HLA-B*44:03; [2]): 10.9 nM
Kd (HLA-B*18:01; [2]): 37.6 nM
Kd (HLA-B*45:01; [2]): 123 nM
Kd (HLA-B*40:01; [2]): 15.6 nM
Kd (HLA-B*44:02; [2]): 24.3 nM

Sequence: MLDDLTMGY
Kd (HLA-A*26:01; [3]): 7290 nM
Kd (HLA-A*30:01): 12900 nM
Kd (HLA-A*29:02; [3]): 125 nM
Kd (HLA-A*30:02; [3]): 226 nM
Kd (HLA-A*01:01; [3]): 1.12 nM
Kd (HLA-A*32:01): 2140 nM

Sequence: PDTTYLGPL
Kd (HLA-B*40:02; [1]): ≥ 77200 nM
Kd (HLA-B*44:03; [1]): ≥ 78100 nM
Kd (HLA-B*18:01; [1]): ≥ 75300 nM
Kd (HLA-B*45:01; [1]): ≥ 21900 nM
Kd (HLA-B*40:01; [1]): ≥ 76100 nM
Kd (HLA-B*44:02; [1]): ≥ 77900 nM

Sequence: QELLIQQWI
Kd (HLA-B*40:02; [2]): 61.7 nM
Kd (HLA-B*44:03; [2]): 13500 nM
Kd (HLA-B*18:01; [2]): 8660 nM
Kd (HLA-B*45:01; [2]): 316 nM
Kd (HLA-B*40:01; [2]): 186 nM
Kd (HLA-B*44:02; [2]): 91.2 nM
